B1: CPEB3 Ribozyme (parent)
chain: GGGGGCCACAGCAGAAGCGUUCACGUCGCGGCCCCUGUCAGAUUCUGGUGAAUCUGCGAAUUCUGCUGU

Variants of: B1
Experiment: self-cleavage, relative activity (ratio to wild type); higher = more cleavage; co-transcriptional

Row | Variant | self-cleavage
1 | GGGGGACACAGCAGAAGUGUUCACGUCGCGGCCCCUGUCAGAUUCUGGUGAAUCUGCGAAUUCUGCUGU [C6A C18U] | 0.146
2 | GGGGGACACAGCAGAAGCGUUCACGUCGCGGCCCAUGUCAGAUUCUGGUGAAUCUGCGAAUUCUGCUGU [C6A C35A] | 0.114
3 | GGGGGACACAGCAGAAGCGUUCACGUUGCGGCCCCUGUCAGAUUCUGGUGAAUCUGCGAAUUCUGCUGU [C6A C27U] | 0.159
4 | GGGGGACACAGCAGAAGCGUUCACGUGGCGGCCCCUGUCAGAUUCUGGUGAAUCUGCGAAUUCUGCUGU [C6A C27G] | 0.122
5 | GGGGGACACAGCAGAAGCGUUCACGUAGCGGCCCCUGUCAGAUUCUGGUGAAUCUGCGAAUUCUGCUGU [C6A C27A] | 0.154
6 | GGGGGACACAGCAGAAGCGUUCACGUCGCGGCCCCUGUCGGAUUCUGGUGAAUCUGCGAAUUCUGCUGU [C6A A40G] | 0.426
7 | GGGGGACACAGCAGAAGCGUUCACGUCGCGGCCCCUGUCCGAUUCUGGUGAAUCUGCGAAUUCUGCUGU [C6A A40C] | 0.177
8 | GGGGGACACAGCAGAAGCGUUCACGUCGCGGCCCCUGUCUGAUUCUGGUGAAUCUGCGAAUUCUGCUGU [C6A A40U] | 0.346
9 | GGGGGACACAGCAGAAGCGUUCACGUCGCGGCCCCUGUCAGAUUGUGGUGAAUCUGCGAAUUCUGCUGU [C6A C45G] | 0.595
10 | GGGGGACACAGCAGAAGCGUUCACGUCGCGGCCCCUGUCAGAUUUUGGUGAAUCUGCGAAUUCUGCUGU [C6A C45U] | 0.708
11 | GGGGGACACAGCAGAAGCGUUCACGUCGCGGCCCCUGUCAGAUUCUGGUGAAUUUGCGAAUUCUGCUGU [C6A C54U] | 0.67
12 | GGGGGACACAGCAGAAGCGUUCACGUCGCGCCCCCUGUCAGAUUCUGGUGAAUCUGCGAAUUCUGCUGU [C6A G31C] | 0.762
13 | GGGGGACACAGCAGAAGCGUUCACGUCGCGACCCCUGUCAGAUUCUGGUGAAUCUGCGAAUUCUGCUGU [C6A G31A] | 0.775
14 | GGGGGACACAGCAGAAGCGUUCACGUCGCGUCCCCUGUCAGAUUCUGGUGAAUCUGCGAAUUCUGCUGU [C6A G31U] | 0.986
15 | GGGGGACACAGCAGAAGCGUUUACGUCGCGGCCCCUGUCAGAUUCUGGUGAAUCUGCGAAUUCUGCUGU [C6A C22U] | 0.0847
16 | GGGGGACACAGCAGAAGCGUUAACGUCGCGGCCCCUGUCAGAUUCUGGUGAAUCUGCGAAUUCUGCUGU [C6A C22A] | 0.165
17 | GGGGGACACAGCAGAAGCGUUCACGUCGAGGCCCCUGUCAGAUUCUGGUGAAUCUGCGAAUUCUGCUGU [C6A C29A] | 0.213
18 | GGGGGACACAGCAGAAGCGUUCACGUCGUGGCCCCUGUCAGAUUCUGGUGAAUCUGCGAAUUCUGCUGU [C6A C29U] | 0.234
19 | GGGGGACACAGCAGAAGCGUUCAGGUCGCGGCCCCUGUCAGAUUCUGGUGAAUCUGCGAAUUCUGCUGU [C6A C24G] | 0.0842
20 | GGGGGACACAGCAGAAGCGUUCAAGUCGCGGCCCCUGUCAGAUUCUGGUGAAUCUGCGAAUUCUGCUGU [C6A C24A] | 0.162

Row | Variant | self-cleavage
21 | GGGGGACACAGCAGAAGCGUUCACGUCGCUGCCCCUGUCAGAUUCUGGUGAAUCUGCGAAUUCUGCUGU [C6A G30U] | 0.157
22 | GGGGGACACAGCAGAAGCGUUCACGUCGCAGCCCCUGUCAGAUUCUGGUGAAUCUGCGAAUUCUGCUGU [C6A G30A] | 0.338
23 | GGGGGACACAUCAGAAGCGUUCACGUCGCGGCCCCUGUCAGAUUCUGGUGAAUCUGCGAAUUCUGCUGU [C6A G11U] | 0.448
24 | GGGGGACACAACAGAAGCGUUCACGUCGCGGCCCCUGUCAGAUUCUGGUGAAUCUGCGAAUUCUGCUGU [C6A G11A] | 0.536
25 | GGGGGACACAGCAGAAGCGUUCACGUCGCGGCCCCUGUCAGAUUCUGGUGAAUCUGAGAAUUCUGCUGU [C6A C57A] | 0.182
26 | GGGGGACACAGCAGAAGCGUUCACGUCGCGGCCCCUGUCAGAUUCUGGUGAAUCUGGGAAUUCUGCUGU [C6A C57G] | 0.22
27 | GGGGGACACAGCAGAAGCGUUCACGUCGCGGCCCCUGUCAGAUUCUGGUGAAUCUGUGAAUUCUGCUGU [C6A C57U] | 0.168
28 | GGGGGACACAGCAGAAGCGUUCACGUCGCGGGCCCUGUCAGAUUCUGGUGAAUCUGCGAAUUCUGCUGU [C6A C32G] | 0.147
29 | GGGGGACACAGCAGAAGCGUUCACGUCGCGGUCCCUGUCAGAUUCUGGUGAAUCUGCGAAUUCUGCUGU [C6A C32U] | 0.123
30 | GGGGGACACAGCAGAAGCGUUCACGUCGCGGACCCUGUCAGAUUCUGGUGAAUCUGCGAAUUCUGCUGU [C6A C32A] | 0.349
31 | GGGGGACACAGCAGAAGCGUUCACGUCGCGGCCCCUGUCAGAUUCUGGUGAAUCUGCGAAUUCUGGUGU [C6A C66G] | 0.44
32 | GGGGGACACAGCAGAAGCGUUCACGUCGCGGCCCCUGUCAGAUUCUGGUGAAUCUGCGAAUUCUGAUGU [C6A C66A] | 0.386
33 | GGGGGACACAGCAGAAGCGUUCACGUCGCGGCCCCUGUCAGAUUCUGGUGAAUCUGCGAAUUCUGUUGU [C6A C66U] | 0.641
34 | GGGGGACACAGCAGAAGCGUUCACGUCGCGGCCUCUGUCAGAUUCUGGUGAAUCUGCGAAUUCUGCUGU [C6A C34U] | 0.339
35 | GGGGGAAACAGCAGAAGCGUUCACGUCGCGGCCCCUGUCAGAUUCUGGUGAAUCUGCGAAUUCUGCUGU [C6A C7A] | 0.143
36 | GGGGGACACAGCAGAAGCGUUCACGUCGCGGCCCCUGUCAGAUUCUGGUGAAUCUGCGAAUUAUGCUGU [C6A C63A] | 0.237
37 | GGGGGACACAGCAGAAGCGUUCACGUCCCGGCCCCUGUCAGAUUCUGGUGAAUCUGCGAAUUCUGCUGU [C6A G28C] | 0.155
38 | GGGGGACACAGCAGAAGCGUUCACGUCACGGCCCCUGUCAGAUUCUGGUGAAUCUGCGAAUUCUGCUGU [C6A G28A] | 0.138
39 | GGGGGACACAGCAGAAGCGUUCACGUCUCGGCCCCUGUCAGAUUCUGGUGAAUCUGCGAAUUCUGCUGU [C6A G28U] | 0.163

Reference: the RNAGym collection of RNA variant scans (doi:10.7554/elife.80360)
